Each block holds one substance with its values, some of them ahead of it.
What was measured:
HLA-B*1401 (B64) (human) [1] = assay: Luminex iBeads (#6), IVIg diluted 1:8
[2] = target: HLA-Cw*1502 (Cw15) (human); assay: Luminex, regular beads (#7), 1:4
[3] = target: HLA-Cw*0401 (Cw4) (human); assay: Luminex, regular beads (#7), 1:4
[4] = target: HLA-Cw*0303 (Cw9) (human); assay: Luminex, regular beads (#7), 1:4
[5] = target: HLA-Cw*0202 (Cw2) (human); assay: Luminex, regular beads (#7), 1:4
[6] = target: HLA-Cw*0702 (Cw7) (human); assay: Luminex, regular beads (#7), 1:4
[7] = target: HLA-Cw*1203 (Cw12) (human); assay: Luminex, regular beads (#7), 1:4
[8] = target: HLA-Cw*0602 (Cw6) (human); assay: Luminex, regular beads (#7), 1:4
[9] = target: HLA-Cw*0304 (Cw10) (human); assay: Luminex, regular beads (#7), 1:4
[10] = target: HLA-Cw*1402 (Cw14) (human); assay: Luminex, regular beads (#7), 1:4
[11] = target: HLA-Cw*1802 (Cw18) (human); assay: Luminex, regular beads (#7), 1:4
[12] = target: HLA-Cw*1701 (Cw17) (human); assay: Luminex, regular beads (#7), 1:4
HLA-B*1501 (B62) (human) = assay: Luminex regular beads (#7), IVIg diluted 1:4
HLA-B*1302 (B13) (human) = assay: Luminex regular beads (#7), IVIg diluted 1:4
HLA-B*1402 (B65) (human) = assay: Luminex regular beads (#7), IVIg diluted 1:4
HLA-B*1503 (B72) (human) = assay: Luminex regular beads (#7), IVIg diluted 1:4
HLA-B*0702 (B7) (human) = assay: Luminex regular beads (#7), IVIg diluted 1:4
HLA-B*1502 (B75) (human) = assay: Luminex regular beads (#7), IVIg diluted 1:4
HLA-B*0801 (B8) (human) = assay: Luminex regular beads (#7), IVIg diluted 1:4
HLA-B*1516 (B63) (human) = assay: Luminex regular beads (#7), IVIg diluted 1:4
HLA-B*1801 (B18) (human) = assay: Luminex regular beads (#7), IVIg diluted 1:4
HLA-B*1401 (B64) (human) [13] = assay: Luminex regular beads (#7), IVIg diluted 1:4
HLA-B*1301 (B13) (human) = assay: Luminex regular beads (#7), IVIg diluted 1:4
HLA-B*1510 (B71) (human) = assay: Luminex regular beads (#7), IVIg diluted 1:4
HLA-B*1511 (B75) (human) = assay: Luminex regular beads (#7), IVIg diluted 1:4
[14] = target: HLA-A*8001 (A80) single antigen on Luminex beads (human); assay: Luminex single antigen bead assay, iBeads (#6), IVIg 1:4
[15] = target: HLA-A*6802 (A68) single antigen on Luminex beads (human); assay: as above
[16] = target: HLA-A*6901 (A69) single antigen on Luminex beads (human); assay: as above
[17] = target: HLA-A*7401 (A74) single antigen on Luminex beads (human); assay: as above
[18] = target: HLA-B*3901 (B39) single antigen on Luminex beads (human); assay: Luminex single antigen, iBead vs regular bead, IVIg 1:8
[19] = target: HLA-B*3801 (B38) single antigen on Luminex beads (human); assay: as above
[20] = target: HLA-B*3701 (B37) single antigen on Luminex beads (human); assay: as above
[21] = target: HLA-B*4501 (B45) single antigen on Luminex beads (human); assay: as above
[22] = target: HLA-B*4402 (B44) single antigen on Luminex beads (human); assay: as above
[23] = target: HLA-B*4701 (B47) single antigen on Luminex beads (human); assay: as above
[24] = target: HLA-B*2705 (B27) single antigen on Luminex beads (human); assay: as above
[25] = target: HLA-B*4002 (B61) single antigen on Luminex beads (human); assay: as above
[26] = target: HLA-B*3501 (B35) single antigen on Luminex beads (human); assay: as above
[27] = target: HLA-B*4006 (B61) single antigen on Luminex beads (human); assay: as above
[28] = target: HLA-B*2708 (B27) single antigen on Luminex beads (human); assay: as above
[29] = target: HLA-B*4001 (B60) single antigen on Luminex beads (human); assay: as above
[30] = target: HLA-B*4403 (B44) single antigen on Luminex beads (human); assay: as above
[31] = target: HLA-B*4201 (B42) single antigen on Luminex beads (human); assay: as above
[32] = target: HLA-B*4101 (B41) single antigen on Luminex beads (human); assay: as above
[33] = target: Albumin on negative control beads (serum albumin, HSA/BSA) (human or bovine); assay: Luminex, iBead MFI against regular bead MFI, 1:8

- MFI (HLA-B*1401 (B64) (human) [1]): 269 MFI
Substance: IVIg GamaSTAN S/D (Talecris Biotherapeutics, USA) (antibody)

- MFI [2]: 778 MFI
- MFI [3]: 1570 MFI
- MFI [4]: 703 MFI
- MFI [5]: 1280 MFI
- MFI [6]: 1970 MFI
- MFI [7]: 985 MFI
- MFI [8]: 1560 MFI
- MFI [9]: 844 MFI
- MFI [10]: 991 MFI
- MFI [11]: 1550 MFI
- MFI [12]: 1490 MFI
- MFI (HLA-B*1501 (B62) (human)): 0 MFI
- MFI (HLA-B*1302 (B13) (human)): 476 MFI
- MFI (HLA-B*1402 (B65) (human)): 239 MFI
- MFI (HLA-B*1503 (B72) (human)): 0 MFI
- MFI (HLA-B*0702 (B7) (human)): 309 MFI
- MFI (HLA-B*1502 (B75) (human)): 157 MFI
- MFI (HLA-B*0801 (B8) (human)): 233 MFI
- MFI (HLA-B*1516 (B63) (human)): 799 MFI
- MFI (HLA-B*1801 (B18) (human)): 0 MFI
- MFI (HLA-B*1401 (B64) (human) [13]): 621 MFI
- MFI (HLA-B*1301 (B13) (human)): 524 MFI
- MFI (HLA-B*1510 (B71) (human)): 240 MFI
- MFI (HLA-B*1511 (B75) (human)): 637 MFI
- MFI [14]: 564 MFI
- MFI [15]: 596 MFI
- MFI [16]: 788 MFI
- MFI [17]: 316 MFI
Substance: IVIg Sandoglobulin (Novartis, Basel, Switzerland) (antibody)

- Difference % (iBead against regular bead MFI) [18]: 0%
- Difference % (iBead against regular bead MFI) [19]: -100%
- Difference % (iBead against regular bead MFI) [20]: -100%
- Difference % (iBead against regular bead MFI) [21]: -68%
- Difference % (iBead against regular bead MFI) [22]: -82%
- Difference % (iBead against regular bead MFI) [23]: -57%
- Difference % (iBead against regular bead MFI) [24]: -100%
- Difference % (iBead against regular bead MFI) [25]: -100%
- Difference % (iBead against regular bead MFI) [26]: -100%
- Difference % (iBead against regular bead MFI) [27]: -97%
- Difference % (iBead against regular bead MFI) [28]: -100%
- Difference % (iBead against regular bead MFI) [29]: -100%
- Difference % (iBead against regular bead MFI) [30]: -39%
- Difference % (iBead against regular bead MFI) [31]: -100%
- Difference % (iBead against regular bead MFI) [32]: -100%
- Difference % (iBead against regular bead) [33]: -29%
Substance: Octagam (IVIg, Octapharma, Lachen, Switzerland) (antibody)

From US10800847
